B1: THAP1; numbered along this chain (parent)
chain: MVQSCSAYGCKNRYDKDKPVSFHKFPLTRPSLCKEWEAAVRRKNFKPTKYSSICSEHFTPDCFKRECNNKLLKENAVPTIFLCTEPHDKKEDLLEPQEQLPPPPLPPPVSQVDAAIGLLMPPLQTPVNLSVFCDHNYTVEDTMHQRKRIHQLEQQVEKLRKKLKTAQQRCRRQERQLEKLKEVVHFQKEKDDVSERGYVILPNDYFEIVEVPA

Variants of B1 are the subject of the data set. As to the kind of experiment: THAP1 transcriptional activity (GFP+/GFP- enrichment relative to wild-type constructs) (ratio to WT); higher = more THAP1 activity (PSMB5 reporter activation). As to conditions: with PSMB5 promoter-GFP reporter. In outline: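 Variants were counted by Illumina sequencing of genomic DNA amplicons from BFP+ cells sorted into GFP-bright and GFP-dim bins five days after lentiviral transduction, in duplicate at MOI ~0.3. The library changed each of residues 2–213 of human THAP1 to all 20 amino acids and was introduced into THAP1-knockout HEK-293T cells with mClover3 knocked in at endogenous PSMB5. Activity equals the replicate-mean bright/dim read fold change over the mean of wild-type synonymous constructs.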
For the variant MVQSCSAYGCKNRYDKDKPVSFHKFPLTRPSLCKEWEAAVRRKNFKPTKYSSICSEHFTPDCFKRECNCKLLKENAVPTIFLCTEPHDKKEDLLEPQEQLPPPPLPPPVSQVDAAIGLLMPPLQTPVNLSVFCDHNYTVEDTMHQRKRIHQLEQQVEKLRKKLKTAQQRCRRQERQLEKLKEVVHFQKEKDDVSERGYVILPNDYFEIVEVPA [N69C], the THAP1 transcriptional activity was 0.181.
To MVQSCSAYGCKNRYDKDKPVSFHKFPLTRPSLCKEWEAAVRRKNFKPTKYSSICSEHFTPDCFKRECNNKLWKENAVPTIFLCTEPHDKKEDLLEPQEQLPPPPLPPPVSQVDAAIGLLMPPLQTPVNLSVFCDHNYTVEDTMHQRKRIHQLEQQVEKLRKKLKTAQQRCRRQERQLEKLKEVVHFQKEKDDVSERGYVILPNDYFEIVEVPA [L72W] belongs 0.18; to MVQSCSAYGCKNRYDKDKPVSFHKFPLTRPSLCKEWEAAVRRKNFKPTKYSSICSEHFTPDCFKRECNNKLLKENAVPTIFLCTEPHDKKEDLLEPQEQLPPTPLPPPVSQVDAAIGLLMPPLQTPVNLSVFCDHNYTVEDTMHQRKRIHQLEQQVEKLRKKLKTAQQRCRRQERQLEKLKEVVHFQKEKDDVSERGYVILPNDYFEIVEVPA [P103T], 1.19.
To MVQSCSAYGCKNRYDKDKPVSFHKFPLTRPSLCKEWEAAVRRKNFKPTKYSSICSEHFTPDCFKRECNNKLLKENAVPTIFLCTEPHDKKEDLLEPQEQLPPPPLPPPVSQVDAAIGLLMPPLQTPVNLSVFCDHNYTVEDTMHQRKRIHQLEQQVEKLRKKLKTAQQRCRRQERQLEKLKEVVHFQKEKDDVSERQYVILPNDYFEIVEVPA [G197Q] belongs 1.29; to MVQSCSAYGCKNRYDKDKPVSFHKFPLTRPSLCKEWEAAVRRKNFKPTKYSSICSEHFTPDCFKRECNNKLLKENAVPTIFLCTEPHDKKEDLLEPQEQLPPPPLPPPVSQVDAAIGLLMPPLQTPVNLSVFCDHNYTVEDTMHQRKRIHQLEQQVEKLRKKLKTAQQRCRRQERQLEKLKEVVHFQKEKDDVSPRGYVILPNDYFEIVEVPA [E195P], 0.704.
Next, MVQSCSAYGCKNRYDKDKPVSFHKFPLTRPSLCKEWEAAVRRKNFKPTKYSSICSEHFTPDCFKRECNNKLLKENAVPTIFLCTEPHDKKEDLLEPQEQLPPPPLPPPVSQVDAAIGLLMPPLQTPVNLSVFCDHNYTVEDTMHQRKRIHQLEQQVEKLRKKLKIAQQRCRRQERQLEKLKEVVHFQKEKDDVSERGYVILPNDYFEIVEVPA [T165I]: 0.755.
For MVQSCSAYGCKNRYDKDKPVSFHKFPLTRPSLCKEWEAAVRRKNFKPTKYSSICSEHFTPDCFKRECNNKLLKENAVPTIFLCTEPHDKKEDLLEPQEQLPPPPMPPPVSQVDAAIGLLMPPLQTPVNLSVFCDHNYTVEDTMHQRKRIHQLEQQVEKLRKKLKTAQQRCRRQERQLEKLKEVVHFQKEKDDVSERGYVILPNDYFEIVEVPA [L105M], the THAP1 transcriptional activity came to 1.81.
To MVQSCSAYGCKNRYDKDKPVSFHKFPLTRPSLCKEWEAAVRRKNFKPTKYSSICSEHFTPDCFKRECNNKLLKENAVPTIFLCTEPHDKKEDLLEPQEQLPPPPLPPPVSQVDAAIGLLMPPLQTPVNLSVFCDHNYTVEDTMHQRKRIHQLEQQVEKLRKKLKTAQQRCRRQERQLEKLKEVVHFQKEKDDVSERGYVILPNDYFEIVEVPW [A213W] belongs 0.538; to MVQSCSAYGCKNRYDKDKPVSFHKFPLTRPSLCKEWEAAVRRKNFKPTKYSSICSEHFTPDCFKRECNNKLLKENAVPTIFLCTEPHDKKEDLLEPQEQLPPPPLPPPVSQVDAAIGLLMPPLQTPVNLSVFCDHNYTVEDTMHQRKRIHQLEQQVEMLRKKLKTAQQRCRRQERQLEKLKEVVHFQKEKDDVSERGYVILPNDYFEIVEVPA [K158M], 0.607; to MVQSCSAYGCKNRYDKDKPVSFHKFPLTRPSLCKEWEAAVRRKNFKPTKYSSICSEHFTPDCFKRECNNKLLKENAVPTIFLCTEPHDKKEDLLEPQEQLPPPPLPPPVSQVDAAIGLLMPPLQTPVNLSVFCDHNYTVEDTMHQRKRIHQLEQQVEKLRKKLKTAQQRCRRGERQLEKLKEVVHFQKEKDDVSERGYVILPNDYFEIVEVPA [Q173G], 0.386.
With MVQSCSAYGCKNRYDKDKPVSEHKFPLTRPSLCKEWEAAVRRKNFKPTKYSSICSEHFTPDCFKRECNNKLLKENAVPTIFLCTEPHDKKEDLLEPQEQLPPPPLPPPVSQVDAAIGLLMPPLQTPVNLSVFCDHNYTVEDTMHQRKRIHQLEQQVEKLRKKLKTAQQRCRRQERQLEKLKEVVHFQKEKDDVSERGYVILPNDYFEIVEVPA [F22E], the THAP1 transcriptional activity came out at 0.0853.
To MVQSCSAYGCKNRYDKDKPVSFHKFPLTRWSLCKEWEAAVRRKNFKPTKYSSICSEHFTPDCFKRECNNKLLKENAVPTIFLCTEPHDKKEDLLEPQEQLPPPPLPPPVSQVDAAIGLLMPPLQTPVNLSVFCDHNYTVEDTMHQRKRIHQLEQQVEKLRKKLKTAQQRCRRQERQLEKLKEVVHFQKEKDDVSERGYVILPNDYFEIVEVPA [P30W] belongs 0.0759; to MVQSCSAYGCKNRYDKDKPVSFHKFPLTRPSLCKEWEAAVRRKNFKPTKYSSICSEHFTPDCFKRECNNKLLKENAVPTIFLCTEPHDKKEDLLEPQEQLPPPPLPPPVSQVDAAIGLLMPPLQTPVNLSVFCDHNYTVEDTMHQRKRIHQLEQQVEKLRKKLKTEQQRCRRQERQLEKLKEVVHFQKEKDDVSERGYVILPNDYFEIVEVPA [A166E], 0.448; to MVQSCSAYGCKNRYDKDKPVSFHKFPLTRPSLCKEWECAVRRKNFKPTKYSSICSEHFTPDCFKRECNNKLLKENAVPTIFLCTEPHDKKEDLLEPQEQLPPPPLPPPVSQVDAAIGLLMPPLQTPVNLSVFCDHNYTVEDTMHQRKRIHQLEQQVEKLRKKLKTAQQRCRRQERQLEKLKEVVHFQKEKDDVSERGYVILPNDYFEIVEVPA [A38C], 0.377.
